Laboratory results published in patent US20260274991A1 (TRIVENI BIO, published 2026).
Residue numbers refer to the chain shown, from its start.

B1: Trypsin 1/Trypsin 2-Dual-L3-Ab1 (antibody, V domains shown)
VH: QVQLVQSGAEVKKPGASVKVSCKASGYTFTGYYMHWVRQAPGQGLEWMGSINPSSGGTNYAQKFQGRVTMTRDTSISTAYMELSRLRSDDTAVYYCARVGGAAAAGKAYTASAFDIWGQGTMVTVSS
VL: EIVMTQSPATLSVSPGERATLSCRASQSVGSNLAWYQQKPGQAPRLLIYGASTRATGIPARFSGSGSGTEFTLTISSLQSEDFAVYYCQQFHNWPPLTFGGGTKVEIK
B2: Trypsin 1/Trypsin 2-Dual-L5-Ab1 (antibody, V domains shown)
VH: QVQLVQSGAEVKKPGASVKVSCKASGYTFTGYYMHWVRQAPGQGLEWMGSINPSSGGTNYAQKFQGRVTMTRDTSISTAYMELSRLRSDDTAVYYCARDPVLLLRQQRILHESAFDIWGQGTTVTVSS
VL: B1 VL
B3: Trypsin 1/Trypsin 2-Dual-L5-Ab2 (antibody, V domains shown)
VH: QVQLVQSGAEVKKPGASVKVSCKASGYTFEGHYMHWVRQAPGQGLEWMGAINPYSGQTNYAQKFQGRVTMTRDTSISTAYMELSRLRSDDTAVYYCARDFVLLLRQSRILHESAFDIWGQGTTVTVSS
VL: B1 VL
B4: Trypsin 1/Trypsin 2-Dual-L3-Ab2 (antibody, V domains shown)
VH: QVQLVQSGAEVKKPGASVKVSCKASGYTFTDHYMHWVRQAPGQGLEWMGAINPSSGGTAYAQKFQGRVTMTRDTSISTAYMELSRLRSDDTAVYYCARVGGAARVGKAYTASAFDIWGQGTMVTVSS
VL: B1 VL
B5: Trypsin 1/Trypsin 2-Dual-L1-Ab1 (antibody, V domains shown)
VH: EVQLLESGGGLVQPGGSLRLSCAASGFTFSSYAMSWVRQAPGKGLEWVSAISASGGSTYYADSVKGRFTISRDNSKNTLYLQMNSLRAEDTAVYYCARGSPIGYSYARVSYYYYMDVWGKGTTVTVSS
VL: DIQMTQSPSSVSASVGDRVTITCRASQGISRWLAWYQQKPGKAPKLLIYAASSLQSGVPSRFSGSGSGTDFTLTISSLQPEDFATYYCQQGNSFPLTFGGGTKVEIK
B6: Trypsin 1/Trypsin 2-Dual-L4-Ab2 (antibody, V domains shown)
VH: QVQLVQSGAEVKKPGASVKVSCKASGYTFTDYAISWVRQAPGQGLEWMGWISASTADTNYAQKLQGRVTMTTDTSTSTAYMELRSLRSDDTAVYYCARGDEVVGKMTYYYGMDVWGQGTTVTVSS
VL: B5 VL with G91A, L96I
B7: Trypsin 1/Trypsin 2-Dual-L4-Ab5 (antibody, V domains shown)
VH: B6 VH with G99Q, Y110I, M112T
VL: B5 VL with G91A, L96I
B8: Trypsin 1/Trypsin 2-Dual-L4-Ab3 (antibody, V domains shown)
VH: B6 VH with M106R, Y110I
VL: B5 VL with G91A, L96I
B9: Trypsin 1/Trypsin 2-Dual-L4-Ab4 (antibody, V domains shown)
VH: B6 VH with D100T, Y108V, Y110L
VL: B5 VL with G91A, L96I
B10: Trypsin 1/Trypsin 2-Dual-L1-Ab2 (antibody, V domains shown)
VH: B5 VH with S30G, S31D, S35W, G56D, S57V, P101L, M115S
VL: B5 VL with N92W
B11: Trypsin 1/Trypsin 2-Dual-L4-Ab1 (antibody, V domains shown)
VH: B6 VH with D31S, A33G, S54Y, T55S, A56G
VL: B5 VL with G91A, L96I
B12: Trypsin 1/Trypsin 2-Dual-L2-Ab4 (antibody, V domains shown)
VH: QVQLQESGPGLVKPSETLSLTCTVSGGSISSHYWHWIRQPAGKGLEWIGRIHTSGSTFYNPSLKSRVTMSVDTSKNQFSLKLSSVTAADTAVYYCARDLTNYGWSKSIRFYGMDVWGQGTTVTVSS
VL: DIQMTQSPSSLSASVGDRVTITCQASQDISNYLNWYQQKPGKAPKLLIYDASNLETGVPSRFSGSGSGTDFTFTISSLQPEDIATYYCQQTDNFITFGGGTKVEIK
B13: Trypsin 1/Trypsin 2-Dual-L2-Ab2 (antibody, V domains shown)
VH: B12 VH with H32N, L99I, W104S, S105G, G112P
VL: B12 VL with T91D, N93T
B14: Trypsin 1/Trypsin 2-Dual-L2-Ab3 (antibody, V domains shown)
VH: B12 VH with H52A, F58Y, W104I, S105T
VL: B12 VL with T91V
B15: Trypsin 1/Trypsin 2-Dual-L2-Ab1 (antibody, V domains shown)
VH: B12 VH with H32Y, H35S, H52Y, F58N, W104S, S105G
VL: B12 VL with T91D

Target: human PRSS1 (R&D Systems), activated with enterokinase (human, UniProt P07477 24-247)
Experiment: cell-based or functional assay

Q: For B1, which “IC50 Against 1 nM hTryp-1” value is on record?
A: 5 nM

Q: Which “IC50 Against 1 nM hTryp-1” value does the source give for B2 here?
A: 45 nM

Q: Which “IC50 Against 1 nM hTryp-1” value does the source give for B3 here?
A: 5.87 nM

Q: Which “IC50 Against 1 nM hTryp-1” value does the source give for B4 here?
A: 2.75 nM

Q: How did the “IC50 Against 1 nM hTryp-1” value turn out when B5 was run?
A: 63 nM

Q: How did the “IC50 Against 1 nM hTryp-1” value turn out when B6 was run?
A: 2.07 nM

Q: How did the “IC50 Against 1 nM hTryp-1” value turn out when B7 was run?
A: 2.4 nM

Q: With B8 as the binder, how does the “IC50 Against 1 nM hTryp-1” value read?
A: 2.31 nM

Q: How did the “IC50 Against 1 nM hTryp-1” value turn out when B9 was run?
A: 2.05 nM

Q: How did the “IC50 Against 1 nM hTryp-1” value turn out when B10 was run?
A: 3.7 nM

Q: For B11, which “IC50 Against 1 nM hTryp-1” value is on record?
A: 1.8 nM

Q: Which “IC50 Against 1 nM hTryp-1” value does the source give for B12 here?
A: 3.71 nM

Q: How did the “IC50 Against 1 nM hTryp-1” value turn out when B13 was run?
A: 2.67 nM

Q: How did the “IC50 Against 1 nM hTryp-1” value turn out when B14 was run?
A: 2.3 nM

Q: For B15, which “IC50 Against 1 nM hTryp-1” value is on record?
A: 46 nM

Target: PRSS2 (R&D Systems), activated with enterokinase (human, UniProt P07478 24-247)
Experiment: cell-based or functional assay

Chain of PRSS2 (R&D Systems), activated with enterokinase (P07478 24-247 limits assumed): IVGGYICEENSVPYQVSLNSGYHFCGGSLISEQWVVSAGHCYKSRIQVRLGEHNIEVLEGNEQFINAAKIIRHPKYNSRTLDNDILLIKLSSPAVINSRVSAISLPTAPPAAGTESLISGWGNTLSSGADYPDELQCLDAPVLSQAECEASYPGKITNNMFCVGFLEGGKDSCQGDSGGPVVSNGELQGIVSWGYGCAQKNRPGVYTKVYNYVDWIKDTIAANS

Q: How did the “IC50 Against 1 nM hTryp-2” value turn out when B1 was run?
A: 16 nM

Q: For B2, which “IC50 Against 1 nM hTryp-2” value is on record?
A: 23 nM

Q: How did the “IC50 Against 1 nM hTryp-2” value turn out when B3 was run?
A: 6.09 nM

Q: With B4 as the binder, how does the “IC50 Against 1 nM hTryp-2” value read?
A: 4.29 nM

Q: How did the “IC50 Against 1 nM hTryp-2” value turn out when B5 was run?
A: 79 nM

Q: With B6 as the binder, how does the “IC50 Against 1 nM hTryp-2” value read?
A: 2.03 nM

Q: Which “IC50 Against 1 nM hTryp-2” value does the source give for B7 here?
A: 2.7 nM

Q: Which “IC50 Against 1 nM hTryp-2” value does the source give for B8 here?
A: 2.01 nM

Q: Which “IC50 Against 1 nM hTryp-2” value does the source give for B9 here?
A: 2.01 nM

Q: B10 was tested. Which “IC50 Against 1 nM hTryp-2” value did it give?
A: 5.33 nM

Q: Which “IC50 Against 1 nM hTryp-2” value does the source give for B11 here?
A: 14 nM

Q: With B12 as the binder, how does the “IC50 Against 1 nM hTryp-2” value read?
A: 5.6 nM

Q: With B13 as the binder, how does the “IC50 Against 1 nM hTryp-2” value read?
A: 3.3 nM

Q: B14 was tested. Which “IC50 Against 1 nM hTryp-2” value did it give?
A: 2.44 nM

Q: How did the “IC50 Against 1 nM hTryp-2” value turn out when B15 was run?
A: 79 nM

Target: Native Trypsin (abcam)
Experiment: cell-based or functional assay

Q: How did the “IC50 Against 0.25 nM Native Trypsin” value turn out when B3 was run?
A: 9.82 nM

Q: For B4, which “IC50 Against 0.25 nM Native Trypsin” value is on record?
A: 5.95 nM

Q: With B6 as the binder, how does the “IC50 Against 0.25 nM Native Trypsin” value read?
A: 5.51 nM

Q: How did the “IC50 Against 0.25 nM Native Trypsin” value turn out when B8 was run?
A: 4.43 nM

Q: How did the “IC50 Against 0.25 nM Native Trypsin” value turn out when B9 was run?
A: 5.48 nM

Q: With B10 as the binder, how does the “IC50 Against 0.25 nM Native Trypsin” value read?
A: 7.98 nM

Q: B12 was tested. Which “IC50 Against 0.25 nM Native Trypsin” value did it give?
A: 4.97 nM

Q: With B13 as the binder, how does the “IC50 Against 0.25 nM Native Trypsin” value read?
A: 5.51 nM

Q: With B14 as the binder, how does the “IC50 Against 0.25 nM Native Trypsin” value read?
A: 4.63 nM

Target: T1, human trypsin 1 with serine to alanine mutation (including a His tag at C terminus) (human, UniProt P07477 24-247)
T1 construct: also called Trypsin 1 S to A
Experiment: SPR (Biacore), antibody captured on Protein A chip, single-cycle kinetics, 25 C
Description: (§1) Antibody binding kinetic experiments via Biacore were performed to screen for anti-trypsin 1/trypsin 2 antibodies having high affinity to the respective targets. All screening assays were performed at 25 C. The running buffer used was 20 mM HEPES, 300 mM NaCl, 1 mM CaCl₂, 0.01% Tween-20, pH 7.5. Antibodies (1 ug/mL) were captured on Fc2-4 of a Series S ProteinA Sensor Chip (Cytiva) flowing at 10 uL/min for 30 s. Kinetics measurements were made in single-cycle kinetics mode with a series of 4-5 concentrations with top concentration of 10-200 nM and serial dilution 4-fold. Contact time was typically 180-300 s and dissociation time ranged from 300-3600 s. Flow rate of 30 uL/min was typically used. The sensor chip was regenerated with 10 mM glycine, pH 1.5 with a contact time of 30 s flowing at 50 uL/min.

Q: B1 was tested. Which Kd did it give?
A: 0.0177 nM

Q: For B2, which Kd is on record?
A: 0.151 nM

Q: With B3 as the binder, how does the Kd read?
A: < 0.01 nM

Q: B4 was tested. Which Kd did it give?
A: 0.00562 nM

Q: Which Kd does the source give for B5 here?
A: 2.54 nM

Q: For B6, which Kd is on record?
A: < 0.01 nM

Q: For B7, which Kd is on record?
A: 0.00465 nM

Q: B8 was tested. Which Kd did it give?
A: 0.00841 nM

Q: How did the Kd turn out when B9 was run?
A: < 0.01 nM

Q: Which Kd does the source give for B10 here?
A: < 0.01 nM

Q: Which Kd does the source give for B11 here?
A: 0.0809 nM

Q: B12 was tested. Which Kd did it give?
A: < 0.01 nM

Q: Which Kd does the source give for B13 here?
A: 0.000891 nM

Q: B14 was tested. Which Kd did it give?
A: 0.0118 nM

Q: B15 was tested. Which Kd did it give?
A: 2.61 nM

Target: T2, human trypsin 2 with serine to alanine mutation (including a His tag at C terminus) (human, UniProt P07478 25-247, limits assumed)
T2 construct: also called Trypsin 2 S to A
Experiment: as above
Description: as §1

T2 sequence (P07478 other isoform, or with tags, fused parts or gaps limits assumed): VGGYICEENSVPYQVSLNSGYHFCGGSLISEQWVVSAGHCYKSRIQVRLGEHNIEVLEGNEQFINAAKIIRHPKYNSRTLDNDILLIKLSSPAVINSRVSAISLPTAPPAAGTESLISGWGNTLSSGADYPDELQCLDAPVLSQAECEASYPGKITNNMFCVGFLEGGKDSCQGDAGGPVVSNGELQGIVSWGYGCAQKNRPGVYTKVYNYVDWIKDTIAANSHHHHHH

Q: B1 was tested. Which Kd did it give?
A: 0.159 nM

Q: Which Kd does the source give for B2 here?
A: 0.227 nM

Q: How did the Kd turn out when B3 was run?
A: 0.00648 nM

Q: For B4, which Kd is on record?
A: 0.0292 nM

Q: Which Kd does the source give for B5 here?
A: 0.763 nM

Q: With B6 as the binder, how does the Kd read?
A: 0.0372 nM

Q: Which Kd does the source give for B7 here?
A: 0.0274 nM

Q: How did the Kd turn out when B8 was run?
A: 0.0451 nM

Q: How did the Kd turn out when B9 was run?
A: 0.0206 nM

Q: How did the Kd turn out when B10 was run?
A: < 0.01 nM

Q: B11 was tested. Which Kd did it give?
A: 0.547 nM

Q: Which Kd does the source give for B12 here?
A: 0.00904 nM

Q: With B13 as the binder, how does the Kd read?
A: 0.00988 nM

Q: B14 was tested. Which Kd did it give?
A: 0.0219 nM

Q: With B15 as the binder, how does the Kd read?
A: 2.2 nM
